Data from article PMC3078985.

Biological target: CLS (C-terminal fragment of human L-selectin with its entire transmembrane and cytoplasmic domains) (human)
Test: AUC

pKd (molar fraction units): 1.49
Substance: CLS (C-terminal fragment of human L-selectin with its entire transmembrane and cytoplasmic domains) (domain or fragment)
